B3: human IL-18BP-His (other)
chain: TPVSQTTTAATASVRSTKDPCPSQPPVFPAAKQCPALEVTWPEVEVPLNGTLSLSCVACSRFPNFSILYWLGNGSFIEHLPGRLWEGSTSRERGSTGTQLCKALVLEQLTPALHSTNFSCVLVDPEQVVQRHVVLAQLWAGLRATLPPTQEALPSSHSSPQQQG
notes: also called His-tagged human IL-18BP; not shown: His tag

Assay [1] has as its target T1, IL-18 receptor (IL-18Rα/IL-18Rβ) on cells (HEK-Blue IL18R reporter cells, NK-92, KG-1) (human, UniProt Q13478 19-541; O95256 20-599).
T1 sequence (looked up) 1: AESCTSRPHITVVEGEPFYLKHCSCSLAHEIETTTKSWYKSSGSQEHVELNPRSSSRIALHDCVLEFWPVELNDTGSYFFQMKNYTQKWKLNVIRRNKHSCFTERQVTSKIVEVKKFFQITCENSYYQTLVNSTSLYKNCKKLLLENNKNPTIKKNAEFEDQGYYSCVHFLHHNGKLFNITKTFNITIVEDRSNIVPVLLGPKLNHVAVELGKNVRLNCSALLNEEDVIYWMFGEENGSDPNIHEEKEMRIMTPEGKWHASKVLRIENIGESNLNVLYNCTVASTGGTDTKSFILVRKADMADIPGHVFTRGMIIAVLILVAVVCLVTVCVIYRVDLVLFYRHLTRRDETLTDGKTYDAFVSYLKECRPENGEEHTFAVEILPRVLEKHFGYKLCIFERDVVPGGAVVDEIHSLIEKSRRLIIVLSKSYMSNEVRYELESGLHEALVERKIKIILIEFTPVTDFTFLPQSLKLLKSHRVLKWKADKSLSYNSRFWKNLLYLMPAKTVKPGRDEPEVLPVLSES
T1 sequence (looked up) 2: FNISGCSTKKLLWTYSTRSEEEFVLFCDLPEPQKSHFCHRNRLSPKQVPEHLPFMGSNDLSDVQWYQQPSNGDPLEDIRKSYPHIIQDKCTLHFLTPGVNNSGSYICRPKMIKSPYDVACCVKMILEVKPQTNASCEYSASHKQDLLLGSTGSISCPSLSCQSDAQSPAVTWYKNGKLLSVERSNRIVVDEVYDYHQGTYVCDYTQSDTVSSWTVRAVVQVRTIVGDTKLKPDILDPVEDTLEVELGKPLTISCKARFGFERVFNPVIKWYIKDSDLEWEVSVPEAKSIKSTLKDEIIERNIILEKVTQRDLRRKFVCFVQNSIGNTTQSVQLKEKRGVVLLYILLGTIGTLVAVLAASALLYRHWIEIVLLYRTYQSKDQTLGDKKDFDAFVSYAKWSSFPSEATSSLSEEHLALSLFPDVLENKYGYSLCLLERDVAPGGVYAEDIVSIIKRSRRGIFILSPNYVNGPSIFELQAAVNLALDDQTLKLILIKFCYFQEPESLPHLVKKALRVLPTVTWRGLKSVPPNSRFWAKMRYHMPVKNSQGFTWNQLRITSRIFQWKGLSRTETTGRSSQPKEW
Nature of the assay: cell-based or functional assay.

For the assay “human IL-18BP-His”, the target named is B3. Kind of assay: AlphaLISA of free IL-18BP after incubation with IL-18BP-His. The procedure: (§1) Under subdued light, 12.5 µl of pre-mixed Donor beads were added, followed by a short centrifugation step at 150 g, and incubated for 30 minutes at 20° C. under shaking at 750 rpm with no light. AlphaLisa signal was then measured on an Enspire plate reader (Perkin Elmer) using 680 and 615 nm as excitation and emission wavelengths respectively.
For orientation: In Alpha technology, singlet oxygen from a donor bead excites a nearby acceptor bead.

Assay [2] deals with T1, IL-18 receptor (IL-18Rα/IL-18Rβ) on …. Nature of the assay: cell-based or functional assay. This is another data set of the same source.
Assay [3] has the same target. Kind of assay: cell-based or functional assay. This is another data set of the same source.
The target of assay [4] is T2, recombinant biotinylated human FcRn (human, UniProt P55899 24-297; P61769 21-119, limits assumed, biotinylated).
T2 construct: also called human neonatal Fc receptor (FcRn)
Kind of assay: AlphaLISA competition at pH 6; competitor: human IgG on acceptor beads. The method, then: The interaction of the unmodified and of conjugated anti-PD1 antibodies with the human neonatal Fc receptor (FcRn) at pH 6 was measured using the AlphaLISA® Human FcRn Binding Kit (AL3095C) from Perkin Elmer (Schwerzenbach, Switzerland).
After 90 min at 23° C. in the dark, AlphaLISA® signal was measured on an EnSpire plate reader (Excitation at 680 nm, Emission at 615 nm) from Perkin Elmer (Schwerzenbach, Switzerland). Binding Affinity of Reference Antibodies and Immunocytokines with the Human Neonatal Fc Receptor as Measured by AlphaLISA

In assay [5] the target is T3, recombinant Human Fc gamma RIIIA/CD16a Protein (R&D systems, 4325-FC-050) (human, UniProt P08637 17-208).
T3 construct: detected with an anti-His antibody; tag and allotype not described; also called FcγRIIIa (CD16)
Kind of assay: ELISA; antibody coated, receptor titrated, anti-His-HRP. The method, then:
(§2) The interaction of the unmodified and of conjugated antibodies with human Fc gamma receptors I (FcγRI/CD64), with human Fc gamma receptors IIa (FcγRIIa/CD32a), with inhibitory human Fc gamma receptors IIb (FcγRIIb/CD32b), and with human Fc gamma receptors III FcγRIIIa/CD16 were measured by ELISA.
(§3) Briefly, Corning high-binding half-area plates (Fisher Scientific, Reinach, Switzerland) were coated overnight at 4° C. with 25 μl of unmodified and of conjugated anti-PD1 antibodies at 2.5 μg/ml in PBS. Plates were then washed four times with 100 μl of PBS-0.02% Tween20. Plates surfaces were blocked with 25 μl of PBS-0.02% Tween20-1% BSA at 37° C. during 1 h. Plates were then washed four times with 100 μl of PBS-0.02% Tween20. Then twenty-five microliters of either recombinant Human Fc gamma RI/CD64 Protein (R&D systems, 1257-FC-050, CF), recombinant Human Fc gamma RIIA/CD32a (H167) Protein (R&D systems, 9595-CD-050, CF), recombinant Human Fc gamma RIIB/CD32b Avi-tag Protein (R&D systems, AVI1875-050, CF), or recombinant Human Fc gamma RIIIA/CD16a Protein (R&D systems, 4325-FC-050; CF) were added in five-fold serial dilutions ranging from 1000 nM to 0.001 nM into PBS-0.02% Tween20-0.1% BSA and incubated at 37° C. during 2 h. Plates were then washed four times with 100 μl of PBS-0.02% Tween20. Twenty-five microliters of a 1/500 HRP-anti-His antibody in PBS—0.02% Tween20-0.1% BSA (R&D systems, anti-HIS—HRP Ab, #MAB050H) were added to each well and plates were incubated at Room Temperature during 1 h. Plates were then washed four times with 100 μl of PBS-0.02% Tween20. Fifty microliters of TMB substrate reagent (#CL07, Merck, Buchs, Switzerland) were added to each well and incubated at 37° C. during 5 min. After 5 min at 37° C., Horseradish peroxidase reaction was stopped by adding 50 μl/well of 0.5M H2SO4 stop solution. ELISA signal was then measured at 450 nm on an EnSpire plate reader from Perkin Elmer (Schwerzenbach, Switzerland). Binding Affinity of Reference Antibodies and Immunocytokines with Human Fc Gamma Receptors as Measured by ELISA
In general terms: In an ELISA, binding on a coated surface is turned into a signal by an enzyme label.

Assay [6] deals with T4, recombinant Human Fc gamma RIIB/CD32b Avi-tag Protein (R&D systems, AVI1875-050) (human, UniProt P31994 46-217).
T4 construct: also called FcγRIIb (CD32b); not shown: Avi-tag
T4 sequence (looked up): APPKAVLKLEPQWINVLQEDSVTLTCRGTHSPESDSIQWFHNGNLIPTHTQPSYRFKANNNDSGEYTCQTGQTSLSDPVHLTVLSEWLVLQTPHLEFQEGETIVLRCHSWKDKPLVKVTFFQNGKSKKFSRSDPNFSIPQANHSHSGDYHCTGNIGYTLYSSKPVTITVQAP
The description is as above. The method, then:
as §2, §3

For assay [7], the target named is T5, recombinant Human Fc gamma RI/CD64 Protein (R&D systems, 1257-FC-050) (human, UniProt P12314 16-288).
T5 construct: detected with an anti-His antibody; tag not described; also called FcγRI/CD64; human Fc gamma receptor I
The assay is described as above. The method, then: as §2, §3

In assay [8] the target is T6, recombinant Human Fc gamma RIIA/CD32a (H167) Protein (R&D systems, 9595-CD-050) (human, UniProt P12318 36-218).
T6 construct: detected with an anti-His antibody; tag not described; also called FcγRIIa (CD32a)
T6 sequence (looked up): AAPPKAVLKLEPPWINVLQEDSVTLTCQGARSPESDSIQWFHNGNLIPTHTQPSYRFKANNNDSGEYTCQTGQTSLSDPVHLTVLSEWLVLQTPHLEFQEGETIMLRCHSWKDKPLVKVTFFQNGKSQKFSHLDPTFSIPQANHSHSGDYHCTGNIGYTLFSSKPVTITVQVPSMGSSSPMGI
The description is as above. The procedure:
as §2, §3

In assay [9] the target is T7, Composition B (Atezolizumab/Tecentriq conjugated to IL-18 polypeptide of SEQ ID NO: 30) (human, UniProt P0DOX5 2-449 = IgG part; P0DOX7 1-214; Q14116 37-193, chemical linker to the antibody; site not stated for this composition; chemical linker to IL-18; site not stated for this composition).
T7 construct: immunocytokine
Nature of the assay: AlphaLISA of free IL-18BP after incubation with IL-18BP-His. The procedure: as §1

B1: IL-18 polypeptide of SEQ ID NO: 30 (E6K, V11I, C38A, K53A, T63A, C76A, C127A) (ligand)
chain: YFGKLKSKLSIIRNLNDQVLFIDQGNRPLFEDMTDSDARDNAPRTIFIISMYADSQPRGMAVAISVKCEKISTLSAENKIISFKEMNPPDNIKDTKSDIIFFQRSVPGHDNKMQFESSSYEGYFLAAEKERDLFKLILKKEDELGDRSIMFTVQNED
notes: also called C086
On to B1, for which the “EC50, HEK-Blue IL18R reporter cells” value in assay [1] came out at 0.034 pM. For the same molecule, the Kd (usually a measure of binding affinity in units of concentration) with human IL-18BP-His was determined as 24.6 nM. Moreover, in [2], the “EC50, IFNγ secretion, PD-1 positive KG-1 cells” value was found to be 0.008 nM and the “EC50, IFNγ secretion, parental KG-1 cells” value is 0.012 nM. Besides, the “EC50, IFNγ secretion, NK92 cells” value in [3] came out at 0.002 nM.

B2: Durvalumab/Imfinzi (antibody, human IgG1, kappa)
heavy: EVQLVESGGGLVQPGGSLRLSCAASGFTFSRYWMSWVRQAPGKGLEWVANIKQDGSEKYYVDSVKGRFTISRDNAKNSLYLQMNSLRAEDTAVYYCAREGGWFGELAFDYWGQGTLVTVSSASTKGPSVFPLAPSSKSTSGGTAALGCLVKDYFPEPVTVSWNSGALTSGVHTFPAVLQSSGLYSLSSVVTVPSSSLGTQTYICNVNHKPSNTKVDKRVEPKSCDKTHTCPPCPAPEFEGGPSVFLFPPKPKDTLMISRTPEVTCVVVDVSHEDPEVKFNWYVDGVEVHNAKTKPREEQYNSTYRVVSVLTVLHQDWLNGKEYKCKVSNKALPASIEKTISKAKGQPREPQVYTLPPSREEMTKNQVSLTCLVKGFYPSDIAVEWESNGQPENNYKTTPPVLDSDGSFFLYSKLTVDKSRWQQGNVFSCSVMHEALHNHYTQKSLSLSPGK
light: EIVLTQSPGTLSLSPGERATLSCRASQRVSSSYLAWYQQKPGQAPRLLIYDASSRATGIPDRFSGSGSGTDFTLTISRLEPEDFAVYYCQQYGSLPWTFGQGTKVEIKRTVAAPSVFIFPPSDEQLKSGTASVVCLLNNFYPREAKVQWKVDNALQSGNSQESVTEQDSKDSTYSLSSTLTLSKADYEKHKVYACEVTHQGLSSPVTKSFNRGEC
notes: also called MEDI-4736
As for B2, the Kd came to 8.31 nM in [4]; 234 nM in assay [5]; 233 nM in [6]; 2.34 nM in assay [7]; 160 nM in assay [8].
As for B3, binding in assay [9] was characterised by a dissociation constant (Kd) of 6.38 nM.

These data come from patent publication US12383631 (BRIGHT PEAK THERAPEUTICS, dated 2025).
